From patent US9974753B2, “Nanoparticles comprising a vegetable hydrophobic protein and a water miscible non-volatile organic solvent and uses thereof” (BIONANOPLUS, S.L., priority 2012, dated 2018) come the findings set out here.

The series is described as follows: Solubility of zein in PG binary solvent mixtures (turbidity change at 405 nm). It counts as physicochemical. As for the experimental part:
The solubility of zein in different binary mixtures of PG and other water miscible non-volatile organic solvents that are miscible with PG was studied. This example studies the incorporation of different surfactants or solvents to enhance the solubility of a molecule in PG, if necessary. For this purpose, turbidity change of PG zein solution was monitored at 405 nm after the addition of different amounts of water, glycerol, Labrasol®, Tween® 80 or Lutrol® L 44 to 5 mL of zein solution in PG (2.5% w/v), at room temperature. The end point zone, at which zein was precipitated from PG solution, was calculated monitoring the turbidity change at 405 nm, that is, the absorbance increase (in percentage) after each solvent/surfactant addition with respect to the initial absorbance value in a spectrophotometer (Labsystems iEMS Reader MF, Finland).

As to zein, the “End point range of zein precipitation from PG solution” value (Tween® 80 added to zein 2.5% w/v in PG) is 65-75 % (v/v) and the “End point range of zein precipitation from PG solution” value (glycerol added to zein 2.5% w/v in PG) is 45-55 % v/v.
